# Reference: patent US20200002699 (published 2020)
# Numbering of substitutions follows the chain as printed.
# B1: Clone 4 (ssRNA)
# RNA: GGAGAGGGAAGGAGAACGGCUGCGGAUAACAAGAUAGCAAAGACUAAGUGACACAAAGCCCGG
# B2: Clone 8 (ssRNA)
# RNA: GGAGAGCGAAGAGAACGAGCGGGAUUGCACAAGAUAGCGUAGACUAAGUGACACAAAGCCCGG
# B3: Clone 10 (ssRNA)
# RNA: GGAGACGGAAGGAUAACGAGCGCUUUGACACAAGAUACAAUAUAGUAAGUGACACCAAGCCCGG
# B4: Clone 9 (ssRNA)
# RNA: GGAGAGGGAAAGAGAACGAGCGGGUGUUCACAAGAUAGAGUAGACUAAGUGACACAAAGCCCGG
# B5: Clone 7 (ssRNA)
# RNA: GGAGAGGGAAUGAUAACGAGCCCGAAGCUCGGAGAAGCACAGAAGCAAGUGACACAAAGCCCGG
# B6: Clone 3 (ssRNA)
# RNA: GGAGAGGGAAGGAGAACGAACCGGGACUCACAAGAUAGACAAUACUAAGUGACACAAAGCCCGG
# B7: Clone 2 (ssRNA)
# RNA: B6 RNA with G8U, G12U, A20G, G23C, A26C, C27G, U43A
# B8: Clone 6 (ssRNA)
# RNA: GGAGAGGGAAGGAGAACGAGCCGGGACACUAAGGAACAUAAAAGUUAAGUGACACAAAGCCCGG
# B9: Clone 1 (ssRNA)
# RNA: GGAGAGAGAAGGAGAACGAGCUGUUACUCACAAAAUAGCGAAGACUAAGUGACACAAAGCCCGG
# B10: Clone 5 (ssRNA)
# RNA: GGAGAGGUAGGAGAACGAGCCUACCGUAAGAGAACGAGCAGACUCAAGUGACACAAAGCCCGG
# Columns and labels:
# alpha-thrombin [1] = molecular target: T1, alpha-thrombin (Homo sapiens, UniProt P00734;P00734 P00734:328-363,P00734:364-622); assay: filter; ±0.9; Fbmax 84.5; same buffer, 22 C
# alpha-thrombin [2] = molecular target: T1, alpha-thrombin; assay: filter; ±0.4; Fbmax 63.5; same buffer, 22 C
# alpha-thrombin [3] = molecular target: T1, alpha-thrombin; assay: filter; ±2.8; Fbmax 52.9; same buffer, 22 C
# alpha-thrombin [4] = molecular target: T1, alpha-thrombin; assay: filter; ±0.2; Fbmax 92.3; 20 mM Tris pH 7.5, 150 mM NaCl, 2 mM MgSO4, 50 ug/mL BSA, 22 C
# alpha-thrombin [5] = molecular target: T1, alpha-thrombin; assay: filter; NB, little or no binding; same buffer, 22 C
# alpha-thrombin [6] = molecular target: T1, alpha-thrombin; assay: filter; ±0.3; Fbmax 65.3; same buffer, 22 C
# alpha-thrombin [7] = molecular target: T1, alpha-thrombin; assay: filter; ±0.3; Fbmax 80.6; same buffer, 22 C
# alpha-thrombin [8] = molecular target: T1, alpha-thrombin; assay: filter; ±1.9; Fbmax 74.5; same buffer, 22 C
# alpha-thrombin [9] = molecular target: T1, alpha-thrombin; assay: filter; ±4.6; Fbmax 95.6; same buffer, 22 C
# alpha-thrombin [10] = molecular target: T1, alpha-thrombin; assay: BLI; ±0.002; kon 91.9e4 M-1 s-1, koff 4.12e-4 s-1; RNA immobilized on streptavidin sensor; 20 mM Tris pH 7.5, 150 mM NaCl, 2 mM MgSO4, 2 mg/mL BSA, 0.1% Tween-20
# alpha-thrombin [11] = molecular target: T1, alpha-thrombin; assay: filter; truncated form; 2 mM MgSO4 buffer
binder,measurement,setting,value
B1,Kd,alpha-thrombin [1],10 nM
B2,Kd,alpha-thrombin [2],1.6 nM
B3,Kd,alpha-thrombin [3],36.4 nM
B4,Kd,alpha-thrombin [4],1.4 nM
B5,binding result,alpha-thrombin [5],no binding
B6,Kd,alpha-thrombin [6],2.4 nM
B7,Kd,alpha-thrombin [7],3.5 nM
B8,Kd,alpha-thrombin [8],13.8 nM
B9,Kd,alpha-thrombin [9],44.7 nM
B10,binding result,alpha-thrombin [5],no binding
GUGUUCACAAGAUAGAGUAGACUAAGUGACAC (ssRNA) [Truncated clone 9],Kd,alpha-thrombin [10],0.448 nM
same,Kd,alpha-thrombin [11],2 nM
